Data set [1] addresses T1, Go (Bos taurus, UniProt P08239).
Method: Trimeric Go was purified to homogeneity from bovine brain as described (Katada et al., FEBS Lett. 213:353-358, 1987). This Go preparation was stored in 20 mM Hepes/NaOH (pH 7.4), 1 mM EDTA, and 0.7% CHAPS, and diluted ≥10 fold for assays.
GTPγS binding to Go was assayed in a buffer containing 50 mM Hepes/NaOH (pH 7.4), 100 μM EDTA, 120 μM MgCl2, and 60 nM [^35 S]GTPγS (DuPont-New England Nuclear) at 37° C., and the fraction of total Go bound to GTPγS was measured as described (Okamoto et al., Cell 62:709-717, 1990). […] The total amount of Go in a given preparation was defined as the saturation amount of GTPγS bound to Go following a 30-min incubation of Go with 10 mM Mg^2+ and ≥60 nM GTPγS at 30° C.
In the experiment shown in FIG. 1(b), 10 nM Go was incubated with water or 100 μM of each peptide for 2 min, and the amount of GTPγS bound to Go at the end of this period was measured. In the experiment shown in FIG. 1(c), 10nM Go was incubated with water (O) or 100 μM peptide 20 (SEQ ID NO: 1) (.oval-solid.), and GTPγS binding was measured at the indicated times. […] GTPγS binding to Go in the presence or absence of peptide 20 (SEQ ID NO: 1) obeyed first-order kinetics according to the equation
(B is the binding at time t; BT is the total binding observable at infinite time; and kapp is the rate constant for GTPγS binding).
In this experiment, 10 nM Go was incubated with various concentrations of [sequence] (peptide 20, SEQ ID NO: 1; .quadrature.), [sequence] (H-deleted, SEQ ID NO: 14; .diamond.), [sequence] (HH-deleted, SEQ ID NO: 15; .quadrature.), [sequence] (RHLSK-deleted, SEQ ID NO: 16; .diamond-solid.), or [sequence] (KQYTSI-added, SEQ ID NO: 17; .box-solid.), and GTPγS binding to Go at 2 min. was measured.
In data set [2] the test system is GS. Kind of data set: Effect of peptide on G proteins other than Go: GS. The class given is biochemical. As to conditions: data not shown. An excerpt:
(§1) Biophys. Acta 161:1280-1285, 1989.

The subject of data set [3] is Gi1. Kind of data set: Effect of peptide on G proteins other than Go: Gi1. In kind it is biochemical. As to conditions: data not shown.
From the text: as §1

Data set [4] deals with Gi3. The experiment in a line: Effect of peptide on G proteins other than Go: Gi3. In kind it is biochemical. As to conditions: data not shown.
From the text: as §1

Data set [5] concerns the target T1, Go. Kind of data set: Storage stability of the Go-activating ability of the peptide. In kind it is physicochemical, bovine. Conditions: storage at either -4° C. or -20° C.
The target in data set [6] is T2, APP-Go complex (Bos taurus, UniProt P08239).
T2 construct: APP immunoprecipitated with 22C11, co-precipitated Go alpha detected by GC/2
The experiment in a line: 22C11 (anti-APP) immunoprecipitation of APP and co-precipitation of Go from solubilized brain membranes. The class given is binding, bovine. As to conditions: 10 μM peptide, FIG. 2d. The procedure: As a control, 2 μg/ml of rabbit IgG was used. After overnight shaking at 4° C., the immunoprecipitated sample was centrifuged at 5000 rpm for 5 min. The pellet was washed three times with ice-cold buffer C and the final pellet was applied to SDS-PAGE. Electroblotting onto a PVDF sheet was performed as described (Okamoto et al., J. Biol. Chem. 266:1085-1091, 1991). After blocking with PBS containing 2% skim milk and 1% BSA, the sheet was incubated with the first antibody [1 μg/ml of 22C11; 1/1000 dilution of anti-Go α monoclonal antibody GC/2 (DuPont-New England Nuclear); 1/1000 dilution of 1C1, a monoclonal antibody against the C-terminal peptide 677-695 of APP695 ] for 4 h, and then exposed to horseradish peroxidase-conjugated goat IgG reactive for mouse or rabbit immunoglobulins for 2-4 h at room temperature. The antigenic bands were detected with an ECL detection kit (Amersham). YL1/2 (SERA Lab), an anti-tubulin antibody, was used at 1:500 dilution for immunodetection.
In this experiment, solubilized brain membranes were incubated with 22C11-coated beads in the presence of 10 μM peptide 20 (SEQ ID NO: 1; 2nd and 5th lanes) or 10 μM of the control peptide, peptide677-695 of APP (SEQ ID NO: 13; 3rd and 6th lanes), or in the absence of both of these peptides (1st and 4th lanes). In this experiment, an anti-mouse IgG antibody different from that used in (a) was employed.

For data set [7], the system named is Gi2. The experiment in a line: Effect of peptide on G proteins other than Go: Gi2. As to conditions: data not shown. The class given is biochemical.
From the text: as §1

Data set [8] deals with smg p25A. Kind of data set: Effect of peptide on low molecular weight G protein smg p25A. In kind it is biochemical. As to conditions: data not shown.
From the text: as §1

For data set [9], the target named is c-Ki-ras p21. The experiment in a line: Effect of peptide on low molecular weight G protein c-Ki-ras p21. The class given is biochemical. As to conditions: data not shown.
From the text: as §1

Data set [10] has as its system Go reconstituted in phospholipid vesicles. The experiment in a line: GTPγS binding to Go reconstituted in phospholipid vesicles. The class given is biochemical, bovine. As to conditions: FIG. 1(e). The procedure:
as §1
GTPγS binding to peptides was negligible.
Reconstitution of Go into phospholipid vesicles was accomplished with 1 mg/ml of phosphatidylcholine, using the gel filtration method (Nishimoto et al., J. Biol. Chem. 264:14029-14038, 1989). In a final incubation for GTPγS binding, 5 nM of reconstituted Go was used.
As illustrated in FIG. 1(e), Go reconstituted in phospholipid vesicles was incubated with transmembrane region-connected peptide 20 ([…], SEQ ID NO: 18; .quadrature.) or the partial sequence of the APP transmembrane domain alone (TVIVITLVML, SEQ ID NO: 7; .quadrature.). Transmembrane region-connected peptide 20 (SEQ ID NO: 18) was also incubated with Go in the absence of phospholipids and the presence of 0.07% CHAPS (.diamond-solid.). The transmembrane region-connected peptide 20 (SEQ ID NO: 18) stimulated Go reconstituted in phospholipid vesicles with a potency 10 times greater than that of peptide 20 (SEQ ID NO: 1). […]
Preactivation of pertussis toxin (Funakoshi, Japan) was carried out by treating the toxin with 100 μM ATP and 1 mM DTT for 10 min at 30° C. […] Increasing concentrations of peptide 20 (SEQ ID NO: 1) were incubated for 2 min with Go reconstituted in phospholipid vesicles which had been treated with pertussis toxin in the presence (.diamond-solid.) or absence (.quadrature.) of NAD, and GTPγS binding to Go was measured.
(GTPγS resists hydrolysis and so accumulates on activated G proteins.)

Data set [11] addresses Trimeric Go purified from bovine brain (bovine) (UniProt P08239). Kind of data set: 22C11-precipitate of Sf9 membranes incubated with 1 µg purified Go, immunoblot.
Data set [12] has the same target.
The mark [13] stands for this setting: 10 nM Go, various peptide concentrations, 2 min, FIG. 1(d).

Results on nine molecules are retold here after patent US5578451A, “Methods and systems for screening potential alzheimer's disease therapeutics” (The General Hospital Corporation, priority 1995, dated 1996).

Values joined by “and” are separate entries in the source; they are usually repeats but may differ in a detail not shown here. Equal entries are not always repeated. Where two headings read alike, the source gives them in different places.

T1 sequence (P08239 whole entry): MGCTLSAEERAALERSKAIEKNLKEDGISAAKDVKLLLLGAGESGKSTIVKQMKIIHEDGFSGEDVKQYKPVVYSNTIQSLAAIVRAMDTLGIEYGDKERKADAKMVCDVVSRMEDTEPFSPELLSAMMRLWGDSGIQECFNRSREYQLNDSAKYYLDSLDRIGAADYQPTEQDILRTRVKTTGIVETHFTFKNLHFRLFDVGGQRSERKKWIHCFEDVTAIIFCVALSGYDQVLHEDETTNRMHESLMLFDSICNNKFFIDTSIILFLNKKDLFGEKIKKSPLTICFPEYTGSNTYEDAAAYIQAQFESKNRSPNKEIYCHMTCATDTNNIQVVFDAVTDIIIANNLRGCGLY
T1 sequence (P62871 whole entry partner): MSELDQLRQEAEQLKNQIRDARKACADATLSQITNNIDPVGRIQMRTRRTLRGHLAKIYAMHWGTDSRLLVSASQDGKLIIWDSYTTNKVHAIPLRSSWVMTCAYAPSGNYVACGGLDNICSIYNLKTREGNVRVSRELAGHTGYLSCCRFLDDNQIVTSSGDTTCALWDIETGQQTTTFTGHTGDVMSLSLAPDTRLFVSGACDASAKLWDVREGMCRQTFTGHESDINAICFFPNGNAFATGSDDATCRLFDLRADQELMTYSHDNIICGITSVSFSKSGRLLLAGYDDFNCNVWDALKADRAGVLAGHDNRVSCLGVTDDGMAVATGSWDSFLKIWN
T1 sequence (P63212 1-68 partner): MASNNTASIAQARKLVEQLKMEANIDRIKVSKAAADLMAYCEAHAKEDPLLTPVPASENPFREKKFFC
T2 sequence (P08239 whole entry): as the sequence (P08239 whole entry) above
T2 sequence (Q28053 whole entry partner): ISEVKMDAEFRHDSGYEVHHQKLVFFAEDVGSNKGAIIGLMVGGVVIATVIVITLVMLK
T2 sequence (P62871 whole entry partner): as the sequence (P62871 whole entry partner) above
T2 sequence (P63212 1-68 partner): as the sequence (P63212 1-68 partner) above
Sequence of recombinant full-length APP695 expressed in Sf9 cells (receptor) (chain): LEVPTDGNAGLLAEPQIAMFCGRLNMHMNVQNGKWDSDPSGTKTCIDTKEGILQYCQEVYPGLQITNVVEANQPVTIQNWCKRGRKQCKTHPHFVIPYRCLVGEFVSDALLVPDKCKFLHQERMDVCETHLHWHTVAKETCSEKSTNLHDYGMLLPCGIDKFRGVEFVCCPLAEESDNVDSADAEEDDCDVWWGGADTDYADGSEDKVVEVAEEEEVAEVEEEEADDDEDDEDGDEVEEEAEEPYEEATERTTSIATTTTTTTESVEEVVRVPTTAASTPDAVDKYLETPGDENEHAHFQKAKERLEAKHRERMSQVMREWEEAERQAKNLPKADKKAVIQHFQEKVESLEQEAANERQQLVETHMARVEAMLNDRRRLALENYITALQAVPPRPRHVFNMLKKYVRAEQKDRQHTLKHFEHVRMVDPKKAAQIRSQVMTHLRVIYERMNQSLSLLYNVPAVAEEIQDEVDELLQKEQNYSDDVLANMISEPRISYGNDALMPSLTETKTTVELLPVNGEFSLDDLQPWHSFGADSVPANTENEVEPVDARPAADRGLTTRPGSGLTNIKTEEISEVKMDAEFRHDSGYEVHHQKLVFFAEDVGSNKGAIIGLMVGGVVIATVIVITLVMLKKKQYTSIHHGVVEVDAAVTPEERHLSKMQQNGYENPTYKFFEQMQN

As for GVVEVDAAVTPEERHLSK [HH-deleted], in [1] (setting [13]), the “Go-activator function of peptide 20 variants (GTPγS binding to Go at 2 min)” value is listed as “nullified Go -activator function”.
With HGVVEVDAAVTPEERHLSK [H-deleted], in [1] (setting [13]), the “Go-activator function of peptide 20 variants (GTPγS binding to Go at 2 min)” value is recorded as “nullified Go -activator function”.
For the molecule HHGVVEVDAAVTPEE [RHLSK-deleted], the “potency relative to peptide 20 in stimulating Go” value in [1] (setting [13]) is recorded as “several times less potent than peptide 20”.
As for “HHGVVEVDAAVTPEERHLSK [peptide 20, peptide corresponding to the His657-Lys676 region of APP]”, the “rate constant of GTPγS binding to Go” value in data set [1] (10 nM Go, increasing peptide concentrations, FIG. 1(d)) is on record as “stimulated the rate constant of GTPγS binding to Go in a dose-dependent manner”. For the same molecule, the “stimulation of GTPγS binding to Go” value in data set [1] (low (≤100 nM) or high (≥10 mM) Mg2+ concentrations) is “could not be observed”; in data set [1] (purified trimeric go) it was 2-3 fold. Moreover, the “stimulation of GS” value in [2] is on record as “not stimulated”. The “stimulation of Gi1” value in data set [3] was “not stimulated”. In addition, the “stimulation of Gi3” value in data set [4] is “not stimulated”. For the same molecule, the “ability to activate Go during storage” value in data set [5] is recorded as “gradually decreased during storage”. The “22C11-mediated co-precipitation of Go” value in [6] is given as “prevents the 22C11-mediated co-precipitation of Go”. Further, the “precipitation of APP by 22C11” value in [6] is reported as “did not affect the precipitation of APP by 22C11”. In data set [7], the “stimulation of Gi2” value is listed as “not stimulated”. Further, the “stimulation of smg p25A” value in data set [8] is “not stimulated”. Further, in data set [9], the “stimulation of c-Ki-ras p21” value is recorded as “not stimulated”.
With “MQQNGYENPTYKFFEQMQN [APP(677-695), peptide corresponding to C-terminal residues 677-695 of APP695, used as control peptide]”, in data set [6], the “22C11-mediated co-precipitation of Go” value is given as “no discernable effect”.
Turning to “TVIVITLVML [APP(639-648), a portion of the transmembrane region of APP]”, in [10], the “effect on Go (GTPγS binding)” value was “without effect on Go”.
As to “TVIVITLVMLHHGVVEVDAAVTPEERHLSK [peptide 20 linked to a portion of the APP transmembrane region]”, the “effect on Go compared with peptide 20” value in [1] (absence of phospholipids, presence of 0.07% CHAPS, FIG. 1(e)) is on record as “no more potent than peptide 20”. Besides, in data set [10], the “potency in stimulating Go relative to peptide 20” value was found to be 10 times.
Consider “recombinant full-length APP695 expressed in Sf9 cells (receptor)”, for which the amount of reconstituted Go precipitated in [11] was 0.05 µg/tube and 0.1 µg/tube.
In [12], TVIVITLVMLHHGVVEVDAAVTPEERHLSK [transmembrane region-connected peptide 20] registered a GTPγS binding to Go reconstituted in phospholipid vesicles (times greater potency than peptide 20) of 10.
